Experimental data published in the nanobody polyreactivity screen of Harvey et al. (2022).

Assay: yeast display, Sf9 membrane polyspecificity reagent, FACS + sequencing; frameworks hold sequencing errors
In short: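 Sorting gates, low and high (top ~1%), were placed on anti-HA fluorescence to track expression and on streptavidin fluorescence to track reagent binding. A clone's polyreactivity label is taken from the gate it came out of. The reagent was 10% biotinylated, detergent-solubilized Sf9 membrane, applied for 1 hour at 4 °C to galactose-induced yeast display cells.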

Sequence | polyreactivity (PSR sort gate)
QVQIVESGGGLVQAGGSLRLSCAASGRIIRDYDMGWYRQAPGKERELVAAITFRSGSTYYADSEKGRFTISRDNAKNTVYLLMNSLKPEDTAVYYCADANSILLFDSWGQGTQVTLSS | low polyreactivity
QVQIVESGGGLVQAGGSLRLSCAASGRILKYYAMGWYRPAPGKEREFVASIRYSGGSTYADSVKGRFTISRDNAKNTVYLQMNSLKPEDTAGYYCNAQLSWTKFAYRGMDYGGQGTQVTVSS | high polyreactivity
QVQIVESGGGLVQAGGSLRLSCAASGRTFAWYAMGWYRQAPGKERELVAAITWSGGSTYYADSVKGRFTISRDNAKNTVYLQMNSLKPEETAVYYCAARTVVGWYSRYCYWGQGTQVTVSS | low polyreactivity
QVQIVESGGGLVQAGGSLRLSCAASGRTFFPYAMGWYRQAPGKEREFVAAITKTDDSTYYADSVKGRFTISRDNAKNTVYLQMNSLKPEDTAVYYCAADRSISADYVVSVDYDYWGQGTQVTVSS | low polyreactivity
QVQIVESGGGLVQAGGSLRLSCAASGRTFKGYAMAFYRQAPGKERELVAGISRGAGRTYYADSVKGRFTISRDNAKNTVYLQMNSLKPEDTAVYYCAAVPSYNSTSPFYYWGQGTQVTVSS | high polyreactivity
QVQIVESGGGLVQAGGSLRLSCAASGRTFNAYAMGWYRPAPGKERELVAAISGNGGSTYYADSVKGRFTISRDNAKNTVYLQMNSLKPEDTAVYYCYKVQRSLLGYNSWGQGTEVTVSS | high polyreactivity
QVQIVESGGGLVQAGGSLRLSCAASGRTFRGNVMGWSRQAPGKEREFVAAITRSGSNTYYADSVKGRFTISRDNAKNTVYLQMNSLKPEDTAVYYCAKSVLLGYKRHDSWGQGTQVTVSS | high polyreactivity
QVQIVESGGGLVQAGGSLRLSCAASGRTFWRYTMGWYRQAPGKERELVASISTGGGSTYYADSVKGRFTISRDNAKNTVYLQMNSLKPEDTAVYYCNVEYVSVSRVWRGNYWGQGTQVTVSS | low polyreactivity
QVQIVESGGGLVQAGGSLRLSCAASGSIFKIYEMGWYRLAPGKEREMVASMTCSGGSTYYADSVKGRFTISRDNAKNTVYLQRNSLKPEDTAGYYCAAAVLGSSKSEVDPDRPEYYYWGQGTQVTVSS | low polyreactivity
QVQIVESGGGLVQAGGSLRLSCAASGSIFLRNAMGWYRQAPGKERELVASITWNGASTSYADSVKGRFTISRDNAKNTVYLQMNSLKPEDTAVYYCAAVTVQDSNLNYGYWGQGTQVTVSS | low polyreactivity
QVQIVESGGGLVQAGGSLRLSCAASGSIFSRYTMGWYRQAPGKERELVARINSSGTSTYYADSVKGRFTISRDNEKNSVYFQMNSLKPEDTAVYYCDRTSRHVRYDYWGQGTQVTVSS | low polyreactivity
QVQIVESGGGLVQAGGSLRLSCAASGSIFSYNVMGWYRQAPGKERELVAAISWNDGSTYYADSVKGRFTISRDNAKNTVYLQMNSLKPEDTAVYYCAAEYGRRWHNELDYWGQGTQVTLSS | low polyreactivity
QVQIVESGGGLVQAGGSLRLSCAASGSNNGYYTMGWYRQAPRKERELVAAINYSGGRTYYADSVKGRFTISRDNAKNTVYFQMNSLKPEDTAVYYCARAYYYGSDIMDYWGQGTQVTVSS | high polyreactivity
QVQIVESGGGLVQAGGSLRLSCAASGSTFLTNTMGWYRQAPGKERELVAAITLRGGRTYYADSVKGRFTISRDNAKNTVYLQMNSLRPEDTAVYYCNARNYYYPSDRDYWGQGTQVTVSS | low polyreactivity
QVQIVESGGGLVQAGGSLRLSCAASGSTFTLNAMGWYRQAPGKERELVADISWSSGRTYYADSVKGRFTISRDNAKNTVYLQMNSLKPEDTAVYYCAARLPFEHVDYWGQGTQVTVSS | low polyreactivity
QVQIVESGGGLVQAGGSLRLSCAASGSTFVENAMGWYRPAPGKERELVAAISSSGDSTFYADSVKGRFTISRDNAKNNVYLQMNSLKPEDTAVYYCAADRRINYDGLDMDYWGQGTQVTVSS | low polyreactivity
QVQIVESGGGLVQAGGSLRLSCAASGSTFYSYAMGWYRPAPGKERELVAGISYIGGRTYYADSVKGRFTISRDNAKNTVYLQMNSLKAEDTAVYDCAADQYGTTYGYWGHGTQVTVSS | high polyreactivity
QVQIVESGGGLVQAGGSLRLSCAASGSTFYSYAMGWYRQAPGKERELVAAIDWSGDNTNYADSVKGRFTISRDNAKNTVYLQMKSLKPEDTAVYYCAAVYSYYRLYAYPAYYYWGQGTQVTVSS | low polyreactivity
QVQIVESGGGLVQAGGSLRLSCAASGSTLGVNAMGWYRQAPGKERELVAAISKSGGGTYYADSVKGRFTISRDIAKNTVYLQMNRLIPEDTAVYYCNAPVSRKYYSWGQGTQVTVSS | high polyreactivity
QVQIVESGGGLVQAGGSLRLSCAASGSTLYAYAMGWYRQAPGKERELVAAIRTGGSTYYADSVKGRFTISRDNAKNTVYLQMNSLKPEDTAVYYCADDHGYQYGYWGQATQVTVSS | low polyreactivity
QVQIVESGGGLVQAGGSLRLSCAASGSTSLVNAMGWYRQAPGKESELVAAITRGGNTYYADSVKGRFTISRDNAKNTVYLQMNSLKPEDTAVYYCAADFWRFYYEYDYWGQGTQVTVSS | low polyreactivity

Sequence | polyreactivity (PSR sort gate)
QVQIVESGGGLVQAGGSLRLSCAASGYTFRFNAMGWYRQAPGKEREFVAAIDFGGAGTYYADSVKGRFTISRDNAKNTVYLQMNSLKPEDTAVYYCNARDGVTTEFDYWGQGTQVTVSS | low polyreactivity
QVQIVESGGGLVQAGGSLRLSCAASRRIFEYYTMGWYRQAPGKERELVARISSGGSTYYADTVKGRFTISRDNAKNSVYLQLNSLLPEDTAVYYCAAGRGYWWWYGYDYWGQGTEVTVSS | low polyreactivity
QVQIVESGGGLVQAGGSLRLSCDASGSIFYSNAIGWYRQAPGKERELVASIRGSGVSTYYADSVKGRFTISRDNAKNTVYLQMNSLKPEDTAVYYCAARYVRSYFGFYYWGQGTQVTVSS | high polyreactivity
QVQIVESGGGLVQAGGSLRLSFAASGSILYINAMGWYRQAPGKERELVAAISWSGDSTNYADSVKGRFTISRDNAKNTVYLQMNSLKPEDTAVYYCNADCDVVGVAHDYWGQGTQVTVSS | low polyreactivity
QVQIVESGGGLVQAGGSLRLTCAASGRTFYGNAMGWYRQAPGKERDLVADISSRSSSTSYADSVKGRFTISRDNAKYSVYFQMNSLKPEDTAVYYCATRYGYRTWYGYNYWGQGTQVTVSS | high polyreactivity
QVQIVESGGGLVQAGGSLRLTCAASGSIFPDYAMGWYRQAPGKERELVASISWDGGSTYYADSVKGRFTISRDNAKNTVYLQMNSLKPEDTAVYYCATELLVGGGFTVDYWGQGTQVTVSS | low polyreactivity
QVQIVESGGGLVQAGGSLRVSCAASGRTFSWYAMGWYRQARGKEWEIVAAIRWSGSSTYYADSVKGRFTISRDNAKNTVYLQMNSLKPEDTAVYYCAVAAGIPQRRYYYWGQGTQVTVSS | high polyreactivity
QVQIVESGGGLVQAGGSLRVSCAPSGNISYSYDMGWYRQAPGKERELVASITESGGSTYYADSVKGRFTISRDNAKNTVYFQMNILKPEDTAVYYCYWGHGTQVTVSS | low polyreactivity
QVQIVESGGGLVQAGGSLSLICAASGFIIDDNTMGWYRQAPGKERELVAAISYSAGSTYYADSVKGRFTISRDNAKNTVFLQMISVKTEDTAVYYCAAQHYWVTSYLSSYDYWGQGTQVTVSS | low polyreactivity
QVQIVESGGGLVQAGGSLSLSCAASGRTFVLYVMGWYRQAPWKEREFVADINAGGGSTYYADSVKGRFTISRDNAKNTVYLQMNSLKPEDTAVYYCAATRDLGQLFRFGYWGQGTQVTVSS | low polyreactivity
QVQIVESGGGLVQARCSLRLSFSASGYTFNNYAKGWYRQAPGTERELVAAISSSGGSTYFADSVKGRFTISRDNAKNTVYVQMNSLKPEDTAVYYCAARPFGLGDYRGYYYWGQGTQVTVSS | low polyreactivity
QVQIVESGGGLVQEGGSLRLRCAASGFTFGYYRMGWYRQAPGKERELVAAISRSAGSTYYADSVKGRFTISRDNAKNTVYLQMNSLKPEDTAVYYCNAAVFRTEGGYSTFNYWGQGSQVTVSS | high polyreactivity
QVQIVESGGGVVQAGGILRLSCAASGYTFTVYGMGWYRQAPGKERELVARITWSGGTTRYADSVKGRFTISRDNAKNNVYLQMNSLKPEDTAVYYCAASYWRPKRYRYDYWGQGTQVTVSS | high polyreactivity
QVQIVESGGRLVQAGCSLRLSCAASGSTFKINAMGWYRQAPGKEWELVAVIRSRGTSTYYADSVKGRFTISRDNSKNTVYLQMNSLKPVDTAVYNCAAGRINGGDYWGQGTQVTVSS | high polyreactivity
QVQIVESGGVIVQAGGSLRLSCAASGRIISYYTMGWYRQAPGKERELVAAISVSSGRTYYADSVKGRFTISRDNAKNTVYLQMNSLKPEDTAVYYCDAKYLARSAYDYWGQGTQVTVSS | high polyreactivity
QVQIVESGPGLVQAGASLSLSCAASGSIFRPYAMGWYIQAPGKDRELVAAITWSGGRTYYADSVKGRFTISRDNAKNTVYLKMNSLKREDTAVYYCAADDSEGFDYWGQGNQVTVSS | high polyreactivity
QVQIVESGRGLVQAGGSLRLSCAPSGFTLGFFAMGWYRQAPGKERELVAAINWRGGSTYYADSVKVRFTISRDNAKNTVYLQMNSLKPEDTAVYYCNRVYRPSRYDYWGQGTQVTVSS | high polyreactivity
QVQIVESGVGLVQAGGSLRLSCAASGTIFARYAMGWYRQAPGKERELVAAISWRGGRTYYADSVKGRFTISRDNAKNTVYLQMNSLKPEVTAVYYCAARRQQRGANGGDYWGQGTQVTLSS | high polyreactivity
QVQIVESWGCLVQAGGSLRLSCAASVNIFNVNAMGWSRQAPRKEREFLAAITSGANSYYADSEKGRFTISRDNAKNSVFLQMNSLKPEDTAVYYCAAEDGSYYRRNRFYYWGQGTQVTVSS | high polyreactivity
QVQIVKSGGGLVQAGGSLRLSCAASGFIIPEYTMGWYRQAPGKERELVAAISGSGGSTYYADSVKGRFTISRDNAKNTVYLQMNSLIPEDTAVYYCIAPVYTADGYRYGSVRFGYWGQGTQVTVSS | low polyreactivity
